Measured values: PMC7613211 (Nature chemical biology, 2022)

Assays:
BT4631^6S-Gal/GalNAc = target: T1, BT4631^6S-Gal/GalNAc (Bacteroides thetaiotaomicron, UniProt Q89YV0); experiment: desulfation assay; type: biochemical
T1 sequence (Q89YV0 26-520): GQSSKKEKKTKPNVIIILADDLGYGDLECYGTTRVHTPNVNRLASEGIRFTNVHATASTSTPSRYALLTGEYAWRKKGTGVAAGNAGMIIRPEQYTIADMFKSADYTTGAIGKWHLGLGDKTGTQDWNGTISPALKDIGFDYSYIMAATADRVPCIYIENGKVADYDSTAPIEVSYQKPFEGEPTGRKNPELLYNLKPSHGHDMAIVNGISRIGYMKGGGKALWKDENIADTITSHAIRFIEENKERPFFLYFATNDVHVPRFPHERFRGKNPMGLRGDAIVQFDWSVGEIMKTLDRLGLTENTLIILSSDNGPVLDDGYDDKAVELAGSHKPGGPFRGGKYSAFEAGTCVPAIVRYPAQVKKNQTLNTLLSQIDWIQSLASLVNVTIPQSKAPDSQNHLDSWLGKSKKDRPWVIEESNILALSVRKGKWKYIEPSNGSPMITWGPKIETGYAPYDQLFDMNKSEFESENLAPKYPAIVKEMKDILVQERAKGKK

[1] = target: BT1918^3S,6S-GlcNAc (Bacteroides thetaiotaomicron) (UniProt Q8A6G6); experiment: SEC-MALS
[2] = target: BT3796^4S-Gal/GalNAc (Bacteroides thetaiotaomicron) (UniProt Q8A171); experiment: SEC-MALS
SEC-MALS = target: the molecule itself; experiment: SEC-MALS

## CC(=O)N[C@H]1C(O)O[C@H](COS(=O)(=O)O)[C@H](O)[C@@H]1O (stereo partly drawn) [6S-GalNAc]
BT4631^6S-Gal/GalNAc
  desulfation assay (kcat/KM only, supplement): BT4631^6S-Gal/GalNAc cleave both 6S-GalNAc and 6S-Gal equally well

## O=S(=O)(O)OC[C@H]1OC(O)[C@H](O)[C@@H](O)[C@H]1O (stereo partly drawn) [6S-Gal]
BT4631^6S-Gal/GalNAc
  desulfation assay (kcat/KM only, supplement): BT4631^6S-Gal/GalNAc cleave both 6S-GalNAc and 6S-Gal equally well

## BT1918^3S,6S-GlcNAc (from UniProt Q8A6G6 1-500) (enzyme)
[1]
  stoichiometry N: 2

## BT3796^4S-Gal/GalNAc (from UniProt Q8A171 1-518) (enzyme)
[2]
  stoichiometry N: 2

B1: BT3057^4S-Gal/GalNAc (enzyme, Bacteroides thetaiotaomicron, UniProt Q8A397 1-508, looked up)
chain: QERPNIIVFLVDDMGLMDTSVPFIADESGQPVRHPLNDWYHTPNMERLAKQGICFSTFYAQSVSSPSRASIMTGQNATRHGVTNWINAESNNRNPFGPPQWNWKGLRKDMPTMPRVLQQAGYKTIHVGKAHFGCMGSEGENPLNIGFDVNIAGSGIGHPGSYYGEWGYGHIKGQKIRAVPDLEKYHGTDTFLSEALTIEANREITKAVEEKRPFYLNMAHYAVHSPFQADKRFLSRYTDPDKNEQARAFATLIEGMDKSLGDIMDQLEKLGIAENTLILFLGDNGGDAPLGDERGYGSSAPLRGKKGTEFEGGMRVPFIAAWAKPEKKSKVQKNLPIEVGSMQTQLGTIMDIYPTVLSVAGCEVPQNYVIDGFDLKKQLSGKVDKKRPESFLMHFPHAHRGSYFTTYRMGDWKLIYYYLPETPKQPKALLYNLKDDPEERNELSAAHPDQCREMIREMSARLEKEGALYPVDKQGNELKPFVYF
SEC-MALS
  stoichiometry N: 2
